Reference: the supplement of paper PMC10065799, “High-throughput profiling of sequence recognition by tyrosine kinases and SH2 domains using bacterial peptide display” (eLife, 2023)

Experiments:
[1] = biological target: Hck (UniProt P08631); assay: phosphorylation enrichment, bacterial display (enrichment ratio); higher = better substrate or ligand; peptides without Tyr show the background
[2] = system: AncSZ; assay: as above
[3] = biological target: Fes (UniProt P07332); assay: as above
[4] = system: Fer (mouse); assay: as above
[5] = biological target: FGFR3 (UniProt P22607); assay: as above
[6] = biological target: EPHB1 (UniProt P54762); assay: as above
[7] = system: c-Src; assay: as above
[8] = biological target: Fyn (UniProt P06241); assay: as above
[9] = biological target: EPHB2 (UniProt P29323); assay: as above
[10] = system: c-Abl (mouse); assay: as above
[11] = biological target: FGFR1 (UniProt P11362); assay: as above
[12] = biological target: Jak2 (UniProt O60674); assay: as above
[13] = biological target: MERTK (UniProt Q12866); assay: as above
[14] = biological target: c-Src SH2; assay: SH2 binding enrichment of the phosphorylated peptide, bacterial display (enrichment ratio); higher = better substrate or ligand; peptides without Tyr show the background
[15] = biological target: SHP2-C SH2; assay: as above
[16] = biological target: Grb2 SH2 (UniProt P62993); assay: as above
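Throughout, for SH2 binding enrichment of the phosphorylated peptide, bacterial display: peptide library displayed on the E. coli surface as eCPX fusions, selected cells deep-sequenced, score is each peptide's frequency after selection divided by its frequency in the input.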
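Throughout, for phosphorylation enrichment, bacterial display: 11-residue human phosphosite peptides and single-mutation variants displayed on the E. coli surface, counted by deep sequencing, each peptide's frequency after selection divided by its frequency in the unselected input library; frequency after pTyr selection over input frequency; kinase dosed for 20-30% of maximal phosphorylation in three min.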

Sequence of EPHB2 (P29323 whole entry, looked up): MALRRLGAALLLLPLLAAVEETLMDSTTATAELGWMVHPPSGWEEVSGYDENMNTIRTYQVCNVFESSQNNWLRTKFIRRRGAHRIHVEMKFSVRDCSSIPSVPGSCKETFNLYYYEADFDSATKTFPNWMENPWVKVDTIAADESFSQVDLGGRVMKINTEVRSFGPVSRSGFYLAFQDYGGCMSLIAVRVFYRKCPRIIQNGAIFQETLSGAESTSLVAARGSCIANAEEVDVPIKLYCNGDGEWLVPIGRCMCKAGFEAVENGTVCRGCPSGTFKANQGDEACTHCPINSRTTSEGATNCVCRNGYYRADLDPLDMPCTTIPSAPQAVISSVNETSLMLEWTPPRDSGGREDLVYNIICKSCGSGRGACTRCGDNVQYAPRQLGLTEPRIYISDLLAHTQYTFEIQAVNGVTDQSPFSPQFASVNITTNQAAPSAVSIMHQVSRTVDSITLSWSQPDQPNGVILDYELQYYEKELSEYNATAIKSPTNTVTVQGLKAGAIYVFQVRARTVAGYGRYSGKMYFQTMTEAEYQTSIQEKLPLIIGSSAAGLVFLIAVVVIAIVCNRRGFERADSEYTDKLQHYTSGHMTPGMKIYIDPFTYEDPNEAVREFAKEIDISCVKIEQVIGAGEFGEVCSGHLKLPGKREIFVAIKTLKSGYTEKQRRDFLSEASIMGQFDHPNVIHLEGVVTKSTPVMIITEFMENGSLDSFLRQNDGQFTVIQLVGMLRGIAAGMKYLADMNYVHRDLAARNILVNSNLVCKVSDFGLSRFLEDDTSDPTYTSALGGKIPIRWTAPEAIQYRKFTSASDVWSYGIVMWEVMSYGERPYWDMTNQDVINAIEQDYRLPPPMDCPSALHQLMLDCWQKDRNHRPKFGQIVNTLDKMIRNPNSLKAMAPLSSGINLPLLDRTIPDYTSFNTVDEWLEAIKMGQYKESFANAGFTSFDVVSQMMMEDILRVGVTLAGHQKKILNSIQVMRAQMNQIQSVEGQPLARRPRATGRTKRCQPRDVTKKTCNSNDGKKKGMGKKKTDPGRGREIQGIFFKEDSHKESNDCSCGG
Sequence of Jak2 (O60674 whole entry, looked up): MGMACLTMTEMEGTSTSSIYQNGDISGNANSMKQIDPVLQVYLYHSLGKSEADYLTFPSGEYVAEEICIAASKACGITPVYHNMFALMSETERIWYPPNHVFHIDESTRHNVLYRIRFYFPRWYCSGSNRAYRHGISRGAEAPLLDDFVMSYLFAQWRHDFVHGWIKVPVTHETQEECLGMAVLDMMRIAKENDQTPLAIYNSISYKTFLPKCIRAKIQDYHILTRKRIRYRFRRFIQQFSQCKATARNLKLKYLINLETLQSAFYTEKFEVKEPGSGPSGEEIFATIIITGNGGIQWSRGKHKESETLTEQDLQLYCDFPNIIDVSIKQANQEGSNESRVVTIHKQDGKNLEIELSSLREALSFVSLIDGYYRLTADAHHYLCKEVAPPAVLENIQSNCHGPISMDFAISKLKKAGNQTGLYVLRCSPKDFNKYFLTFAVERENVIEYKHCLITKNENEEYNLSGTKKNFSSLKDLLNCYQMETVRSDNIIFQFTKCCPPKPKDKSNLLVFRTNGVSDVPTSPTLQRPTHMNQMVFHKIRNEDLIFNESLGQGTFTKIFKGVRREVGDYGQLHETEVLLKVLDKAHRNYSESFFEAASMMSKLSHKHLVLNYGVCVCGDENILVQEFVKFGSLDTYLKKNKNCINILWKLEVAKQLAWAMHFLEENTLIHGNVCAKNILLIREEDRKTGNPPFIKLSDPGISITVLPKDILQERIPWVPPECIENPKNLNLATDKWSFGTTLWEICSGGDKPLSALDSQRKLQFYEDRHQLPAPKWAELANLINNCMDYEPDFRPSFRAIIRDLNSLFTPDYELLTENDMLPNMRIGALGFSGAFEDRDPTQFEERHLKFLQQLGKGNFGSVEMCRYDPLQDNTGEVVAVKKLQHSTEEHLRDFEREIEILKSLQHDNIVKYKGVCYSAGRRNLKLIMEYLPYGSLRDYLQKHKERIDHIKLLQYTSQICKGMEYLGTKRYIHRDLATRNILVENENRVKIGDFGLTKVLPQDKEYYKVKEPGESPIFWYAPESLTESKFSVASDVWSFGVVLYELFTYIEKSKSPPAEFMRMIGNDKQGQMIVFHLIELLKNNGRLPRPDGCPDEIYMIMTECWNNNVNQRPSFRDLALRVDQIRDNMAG
Sequence of FGFR1 (P11362 whole entry, looked up): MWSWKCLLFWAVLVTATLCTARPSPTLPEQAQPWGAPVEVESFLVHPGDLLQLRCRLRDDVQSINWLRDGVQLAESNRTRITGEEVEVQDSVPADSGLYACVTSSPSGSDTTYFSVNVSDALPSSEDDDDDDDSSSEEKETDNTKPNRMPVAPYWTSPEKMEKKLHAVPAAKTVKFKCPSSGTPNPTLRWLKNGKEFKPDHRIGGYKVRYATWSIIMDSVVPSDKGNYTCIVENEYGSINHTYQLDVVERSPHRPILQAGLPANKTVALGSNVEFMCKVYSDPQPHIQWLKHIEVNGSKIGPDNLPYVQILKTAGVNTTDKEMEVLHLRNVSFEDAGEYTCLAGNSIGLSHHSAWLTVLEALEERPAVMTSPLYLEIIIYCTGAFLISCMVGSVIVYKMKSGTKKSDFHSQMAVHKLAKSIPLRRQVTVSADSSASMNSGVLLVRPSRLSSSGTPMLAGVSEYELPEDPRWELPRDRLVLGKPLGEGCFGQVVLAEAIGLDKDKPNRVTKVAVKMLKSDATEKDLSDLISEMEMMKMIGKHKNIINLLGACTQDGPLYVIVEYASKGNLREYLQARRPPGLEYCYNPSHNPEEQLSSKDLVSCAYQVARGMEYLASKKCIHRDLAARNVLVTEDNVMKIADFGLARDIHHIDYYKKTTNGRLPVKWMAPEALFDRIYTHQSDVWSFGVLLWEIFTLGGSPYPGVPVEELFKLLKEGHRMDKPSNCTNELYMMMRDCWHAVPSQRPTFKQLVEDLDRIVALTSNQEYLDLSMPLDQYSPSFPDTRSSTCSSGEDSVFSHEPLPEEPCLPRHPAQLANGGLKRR
Sequence of MERTK (Q12866 whole entry, looked up): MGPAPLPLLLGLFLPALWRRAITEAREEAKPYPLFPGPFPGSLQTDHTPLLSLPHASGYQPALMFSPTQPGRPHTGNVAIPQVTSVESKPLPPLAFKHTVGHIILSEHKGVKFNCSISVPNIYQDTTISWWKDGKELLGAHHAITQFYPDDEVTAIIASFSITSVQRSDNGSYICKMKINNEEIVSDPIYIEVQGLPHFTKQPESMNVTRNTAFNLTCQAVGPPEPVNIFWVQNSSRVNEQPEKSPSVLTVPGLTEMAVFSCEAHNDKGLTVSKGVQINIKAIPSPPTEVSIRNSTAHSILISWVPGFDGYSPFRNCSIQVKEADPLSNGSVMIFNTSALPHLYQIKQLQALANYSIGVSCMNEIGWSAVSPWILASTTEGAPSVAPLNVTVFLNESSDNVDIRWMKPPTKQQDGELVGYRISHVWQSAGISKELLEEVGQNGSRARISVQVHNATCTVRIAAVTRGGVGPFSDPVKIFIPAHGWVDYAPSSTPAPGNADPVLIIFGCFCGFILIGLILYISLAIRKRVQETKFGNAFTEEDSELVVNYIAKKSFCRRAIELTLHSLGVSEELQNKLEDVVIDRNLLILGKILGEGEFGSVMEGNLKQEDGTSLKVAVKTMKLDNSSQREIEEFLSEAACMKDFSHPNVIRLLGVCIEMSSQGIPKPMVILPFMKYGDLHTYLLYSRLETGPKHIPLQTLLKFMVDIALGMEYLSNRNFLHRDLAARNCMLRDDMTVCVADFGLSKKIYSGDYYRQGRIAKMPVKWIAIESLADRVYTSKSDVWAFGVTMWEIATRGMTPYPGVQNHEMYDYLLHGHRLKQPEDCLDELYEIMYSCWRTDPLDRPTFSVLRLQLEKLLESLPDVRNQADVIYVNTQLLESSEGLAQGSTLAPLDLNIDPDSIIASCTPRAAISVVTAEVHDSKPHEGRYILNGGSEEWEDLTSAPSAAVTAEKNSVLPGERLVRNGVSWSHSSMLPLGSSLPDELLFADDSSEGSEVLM
Sequence of Fyn (P06241 whole entry, looked up): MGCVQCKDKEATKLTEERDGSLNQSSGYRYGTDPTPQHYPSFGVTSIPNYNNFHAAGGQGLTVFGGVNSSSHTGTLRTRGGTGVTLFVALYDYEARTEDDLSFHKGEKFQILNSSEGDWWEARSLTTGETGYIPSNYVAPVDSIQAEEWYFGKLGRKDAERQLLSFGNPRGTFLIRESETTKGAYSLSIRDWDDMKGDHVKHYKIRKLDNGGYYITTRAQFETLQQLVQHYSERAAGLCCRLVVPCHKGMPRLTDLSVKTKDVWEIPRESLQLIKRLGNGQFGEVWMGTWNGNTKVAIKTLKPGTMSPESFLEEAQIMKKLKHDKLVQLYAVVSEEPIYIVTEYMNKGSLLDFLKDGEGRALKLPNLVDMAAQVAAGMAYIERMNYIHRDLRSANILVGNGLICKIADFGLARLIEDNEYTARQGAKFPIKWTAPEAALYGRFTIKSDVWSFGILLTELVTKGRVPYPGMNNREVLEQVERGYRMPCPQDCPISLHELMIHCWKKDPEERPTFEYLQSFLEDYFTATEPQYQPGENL
Sequence of Hck (P08631 whole entry, looked up): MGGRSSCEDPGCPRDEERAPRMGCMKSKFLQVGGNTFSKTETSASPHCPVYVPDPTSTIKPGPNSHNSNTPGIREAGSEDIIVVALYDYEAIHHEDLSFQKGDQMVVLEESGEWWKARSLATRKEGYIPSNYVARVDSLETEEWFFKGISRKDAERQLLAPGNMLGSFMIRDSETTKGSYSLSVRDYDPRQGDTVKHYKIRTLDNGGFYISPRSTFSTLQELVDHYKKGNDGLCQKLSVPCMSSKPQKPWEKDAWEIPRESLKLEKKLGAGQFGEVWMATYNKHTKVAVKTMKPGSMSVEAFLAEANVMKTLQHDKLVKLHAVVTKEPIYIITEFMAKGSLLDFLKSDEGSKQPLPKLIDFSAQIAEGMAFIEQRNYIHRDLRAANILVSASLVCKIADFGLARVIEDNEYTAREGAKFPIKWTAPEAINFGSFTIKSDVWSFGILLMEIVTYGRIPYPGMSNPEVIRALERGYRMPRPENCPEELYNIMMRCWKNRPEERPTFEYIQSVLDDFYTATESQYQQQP

SH2 binding enrichment [14] | SH2 binding enrichment [15] | SH2 binding enrichment [16] | Sequence | phosphorylation enrichment [1] | phosphorylation enrichment [2] | phosphorylation enrichment [3] | phosphorylation enrichment [4] | phosphorylation enrichment [5] | phosphorylation enrichment [6] | phosphorylation enrichment [7] | phosphorylation enrichment [8] | phosphorylation enrichment [9] | phosphorylation enrichment [10] | phosphorylation enrichment [11] | phosphorylation enrichment [12] | phosphorylation enrichment [13]
1.52 | 0.799 | 0.97 | NCFKYYMSDDI [ATRX_Y204] | 0.548 | 1.33 | 1.51 | 0.496 | 0.931 | 0.748 | 0.811 | 0.491 | 0.625 | 1.17 | 0.959 | 1.32 | 0.562
0.558 | 0.912 | 1.12 | TKVVHYRKWIK [KLK2_Y249] | 0.443 | 0.632 | 0.614 | 0.373 | 0.432 | 0.483 | 0.595 | 0.382 | 0.318 | 0.462 | 0.375 | 0.415 | 0.379
1.15 | 0.978 | 1.3 | SLLLSYFLIKW [NUP160_Y773_P768S_YF] | 0.654 | 1.56 | 1.46 | 0.719 | 1.08 | 0.691 | 0.512 | 0.589 | 0.788 | 1.05 | 0.732 | 1.51 | 0.514
0.608 | 0.626 | 0.786 | SVMVPYEPPEV [TP53_Y220_V217M] | 0.496 | 1.04 | 1.15 | 0.56 | 0.662 | 0.515 | 0.465 | 0.481 | 0.54 | 0.804 | 0.52 | 1.09 | 0.433
0.374 | 0.55 | 0.696 | AGTILSHAHLD [ASS1_Y291_Y291S] | 0.412 | 0.75 | 0.847 | 0.374 | 0.546 | 0.788 | 0.384 | 0.367 | 0.459 | 0.622 | 0.364 | 0.707 | 0.289
0.626 | 0.686 | 0.743 | ARLEFCENEKK [IRS1_Y47_Y47C_YF] | 0.402 | 0.983 | 1.23 | 0.568 | 0.926 | 0.636 | 0.484 | 0.515 | 0.575 | 0.868 | 0.581 | 1.02 | 0.434
0.539 | 0.723 | 0.803 | SGPRRYTIATL [TTR_Y125_A129T] | 0.372 | 0.472 | 0.44 | 0.361 | 0.398 | 1.36 | 0.375 | 0.377 | 0.344 | 0.39 | 0.432 | 1.03 | 0.425
0.602 | 0.683 | 0.782 | RNIQQYNSFVS [PRKAR1A_Y373] | 0.64 | 0.768 | 0.743 | 0.534 | 0.787 | 0.391 | 0.589 | 0.648 | 0.611 | 0.986 | 0.573 | 0.667 | 0.457
